Data: patent US20240210403A1 (MARTELL DIAGNOSTIC LABORATORIES, published 2024)

Biological target: T1, human HER2 protein present in serum samples (human, UniProt P04626 23-652)
T1 construct: extracellular domain; Endogenous analyte in human sera; also called sHER2; serum HER2
Experiment: sandwich ELISA, 1B7 capture/1G5-biotin detection
Protocol: Standards, controls and samples were pipetted into the wells, and any HER2 present was bound by the immobilized antibody. […] Following a wash to remove unbound conjugate, a substrate solution was added to the wells, and color developed in proportion to the amount of HER2 bound. After color development was stopped, the absorbance was measured using a microplate spectrophotometer.
Sample Buffer/Antibody Diluent (10% Casein in 1×PBS) was prepared (˜40 mL/plate). After incubation, plates were washed on a plate washer as described herein. 245 μL of Sample Buffer then was pipetted into a labeled snap-cap tube for each patient sample to be tested, as well as for each standard and control. A 1:50 dilution of each patient sample as well as each standard and control was generated (e.g., 5 μL of each sample in 95 μL of Sample Buffer). 100 μL of each sample (patient, standard, control, and blank (i.e., 100 μL of Sample Buffer)) was pipetted into their respective wells as indicated on the plate map. The wells were covered with an adhesive plate cover, placed in a microplate shaker (Corning LSE Digital Microplate Shaker) at 500 rpms for 1 min, and then incubated at room temperature for 1 hour.
After incubation, plates were washed on a plate washer as described herein. […] 100 μL was pipetted into each well and the plate was covered with an adhesive plate cover. […]

B1: 1B7 anti-HER2 rabbit monoclonal antibody (antibody, V domains shown)
VH: QSVEESGGRLVTPGTPLTLTCTVSGIDLSDYAMGWVRQAPGKGLEYIGIISSSGNTHYARWARGRFTISKTSSTTVDLKMTSLTTEDTATYFCARNYPGYANYALWGQGTLVTVSS
VL: RIVMTQTPASVSAAVGGTVTIKCQASESISNWLSWYQQKPGQPPKLLIYRASTLASGVPSRFSGSGSGTEYTLTISDLECADAATYYCQQDYIYNDIDNAFGGGTEVVVKG
notes: Recombinant rabbit IgG (gamma 1 heavy, kappa 1 light) expressed in 293F cells; Used as the coated capture antibody; also called Capture Antibody (1B7; Yurogen)
  binding result: binds
